Source: patent US20180339017A1 (Merck Sharp & Dohme, published 2018)
Read-outs that look alike come from different tables or passages of the source. Starred links: 1 amine or outer side, 2 acyl side, 3 side chain; linkers in the order of their positions; H or OH if unused. Non-standard residues stand in square brackets, D forms with d. Groups on a side chain read outwards from the residue. No end group written: not given here. *: point of attachment. γGlu = O=C(O)[C@H](CCC(=O)[*:2])N[*:1]; Palmitoyl = CCCCCCCCCCCCCCCC(=O)*

B1: TP534 (peptide)
peptide: H[dS]QGTFTSDK([γGlu-γGlu-Palmitoyl])SKYLDNKRAQDFVQWLMQT-NH2
modifications: N-terminus assumed
SMILES: CCCCCCCCCCCCCCCC(=O)N[C@@H](CCC(=O)N[C@@H](CCC(=O)NCCCC[C@H](NC(=O)[C@H](CC(=O)O)NC(=O)[C@H](CO)NC(=O)[C@@H](NC(=O)[C@H](Cc1ccccc1)NC(=O)[C@@H](NC(=O)CNC(=O)[C@H](CCC(N)=O)NC(=O)[C@@H](CO)NC(=O)[C@@H](N)Cc1c[nH]cn1)[C@@H](C)O)[C@@H](C)O)C(=O)N[C@@H](CO)C(=O)N[C@@H](CCCCN)C(=O)N[C@@H](Cc1ccc(O)cc1)C(=O)N[C@@H](CC(C)C)C(=O)N[C@@H](CC(=O)O)C(=O)N[C@@H](CC(N)=O)C(=O)N[C@@H](CCCCN)C(=O)N[C@@H](CCCNC(=N)N)C(=O)N[C@@H](C)C(=O)N[C@@H](CCC(N)=O)C(=O)N[C@@H](CC(=O)O)C(=O)N[C@@H](Cc1ccccc1)C(=O)N[C@H](C(=O)N[C@@H](CCC(N)=O)C(=O)N[C@@H](Cc1c[nH]c2ccccc12)C(=O)N[C@@H](CC(C)C)C(=O)N[C@@H](CCSC)C(=O)N[C@@H](CCC(N)=O)C(=O)N[C@H](C(N)=O)[C@@H](C)O)C(C)C)C(=O)O)C(=O)O

Experiments:
Test in all cases: cell-based or functional assay
human glucagon receptor [1] = target: T1, human glucagon receptor (human, UniProt P47871 26-477)
human GLP-1 receptor [2] = target: T2, human GLP-1 receptor (human, UniProt P43220 24-463)
human glucagon receptor [3] = target: T1, human glucagon receptor; remark: listed apart in the source
human GLP-1 receptor [4] = target: T2, human GLP-1 receptor; remark: listed apart in the source

T1 sequence (P47871 26-477): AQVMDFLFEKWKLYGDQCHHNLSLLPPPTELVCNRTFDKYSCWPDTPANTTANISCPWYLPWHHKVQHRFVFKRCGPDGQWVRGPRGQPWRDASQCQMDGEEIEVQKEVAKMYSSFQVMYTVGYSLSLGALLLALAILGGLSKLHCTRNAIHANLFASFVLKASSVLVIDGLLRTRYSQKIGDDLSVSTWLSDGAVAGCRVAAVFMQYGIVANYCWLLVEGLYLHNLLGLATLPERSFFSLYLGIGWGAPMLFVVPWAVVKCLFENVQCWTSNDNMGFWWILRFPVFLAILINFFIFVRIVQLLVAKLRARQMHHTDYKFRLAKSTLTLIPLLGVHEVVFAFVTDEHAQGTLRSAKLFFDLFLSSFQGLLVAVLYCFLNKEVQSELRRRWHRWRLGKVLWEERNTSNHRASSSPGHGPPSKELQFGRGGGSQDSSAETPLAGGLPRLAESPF

Binder | EC50 hGCGR (cAMP activity assay) (human glucagon receptor [1]) | EC50 hGLP1R (cAMP activity assay) (human GLP-1 receptor [2]) | EC50 hGCGR (cAMP activity assay) (human glucagon receptor [3]) | EC50 hGLP1 (cAMP activity assay) (human GLP-1 receptor [4])
HSQGTFTSDYSKYLDSRRAHDFVQWLLNT-NH2 [PD29] | 0.02 nM | 0.02 nM | 0.02 nM | 0.02 nM
B1 |  |  | 0.01 nM | 0.02 nM
